# Experimental data as given in IntAct's records for PubMed 35512704.
# B1: Speckle-type POZ protein (Homo sapiens), O43791 (parent)
# chain: MSRVPSPPPPAEMSSGPVAESWCYTQIKVVKFSYMWTINNFSFCREEMGEVIKSSTFSSGANDKLKWCLRVNPKGLDEESKDYLSLYLLLVSCPKSEVRAKFKFSILNAKGEETKAMESQRAYRFVQGKDWGFKKFIRRDFLLDEANGLLPDDKLTLFCEVSVVQDSVNISGQNTMNMVKVPECRLADELGGLWENSRFTDCCLCVAGQEFQAHKAILAARSPVFSAMFEHEMEESKKNRVEINDVEPEVFKEMMCFIYTGKAPNLDKMADDLLAAADKYALERLKVMCEDALCSNLSVENAAEILILADLHSADQLKTQAVDFINYHASDVLETSGWKSMVVSHPHLVAEAYRSLASAQCPFLGPPRKRLKQS
# partner: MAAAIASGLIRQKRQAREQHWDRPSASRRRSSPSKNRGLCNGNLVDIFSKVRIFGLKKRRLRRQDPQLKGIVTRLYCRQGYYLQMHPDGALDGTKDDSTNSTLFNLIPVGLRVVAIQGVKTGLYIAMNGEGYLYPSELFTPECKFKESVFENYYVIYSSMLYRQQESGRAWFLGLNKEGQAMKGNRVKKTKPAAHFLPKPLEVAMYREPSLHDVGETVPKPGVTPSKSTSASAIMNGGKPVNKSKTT
# B2: Speckle-type POZ protein (Homo sapiens), O43791 (parent)
# chain: B1 chain
# partner: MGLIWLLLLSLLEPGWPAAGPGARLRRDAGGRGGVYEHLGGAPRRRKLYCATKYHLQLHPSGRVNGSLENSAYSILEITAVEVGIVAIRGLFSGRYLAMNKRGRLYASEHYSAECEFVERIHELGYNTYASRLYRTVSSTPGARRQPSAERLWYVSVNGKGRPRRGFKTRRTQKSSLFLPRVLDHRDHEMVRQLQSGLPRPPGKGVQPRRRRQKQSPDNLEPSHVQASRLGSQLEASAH
# B3: Speckle-type POZ protein (Homo sapiens), O43791 (parent)
# chain: B1 chain
# partner: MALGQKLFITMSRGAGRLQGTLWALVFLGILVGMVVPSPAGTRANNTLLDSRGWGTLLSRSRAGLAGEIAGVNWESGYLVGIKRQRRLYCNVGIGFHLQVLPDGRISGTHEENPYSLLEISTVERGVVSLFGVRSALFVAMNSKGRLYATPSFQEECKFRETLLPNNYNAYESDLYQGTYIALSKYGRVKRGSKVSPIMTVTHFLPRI
# Variants of: B1
# Conditions: with fgf14_human FGF14, Q92915
row,effect of a mutation on the interaction,Variant
1,with no effect,MSRVPSPPPPAEMSSGPVAESWCYTQIKVVKFSYMWTINNFSFCREEMGEVIKSSTFSSGANDKLKWCLRVNPKGLDEESKDYLSLCLLLVSCPKSEVRAKFKFSILNAKGEETKAMESQRAYRFVQGKDWGFKKFIRRDFLLDEANGLLPDDKLTLFCEVSVVQDSVNISGQNTMNMVKVPECRLADELGGLWENSRFTDCCLCVAGQEFQAHKAILAARSPVFSAMFEHEMEESKKNRVEINDVEPEVFKEMMCFIYTGKAPNLDKMADDLLAAADKYALERLKVMCEDALCSNLSVENAAEILILADLHSADQLKTQAVDFINYHASDVLETSGWKSMVVSHPHLVAEAYRSLASAQCPFLGPPRKRLKQS [Y87C]

# Variants of: B1
# Conditions: with fgf14_human FGF14, Q92915
# Remark: another data set of the same source
row,effect of a mutation on the interaction,Variant
1,with no effect,MSRVPSPPPPAEMSSGPVAESWCYTQIKVVKFSYMWTINNFSFCREEMGEVIKSSTFSSGANDKLKWCLRVNPKGLDEESKDYLSLYLLLVSCPKSEVRAKFKFSILNAKGEETKAMESQRAYRFVQGKDWGLKKFIRRDFLLDEANGLLPDDKLTLFCEVSVVQDSVNISGQNTMNMVKVPECRLADELGGLWENSRFTDCCLCVAGQEFQAHKAILAARSPVFSAMFEHEMEESKKNRVEINDVEPEVFKEMMCFIYTGKAPNLDKMADDLLAAADKYALERLKVMCEDALCSNLSVENAAEILILADLHSADQLKTQAVDFINYHASDVLETSGWKSMVVSHPHLVAEAYRSLASAQCPFLGPPRKRLKQS [F133L]

# Variants of: B1
# Conditions: with fgf14_human FGF14, Q92915
# Remark: another data set of the same source
row,effect of a mutation on the interaction,Variant
1,with no effect,MSRVPSPPPPAEMSSGPVAESWCYTQIKVVKFSYMWTINNFSFCREEMGEVIKSSTFSSGANDKLKWCLRVNPKGLDEESKDYLSLYLLLVSCPKSEVRAKFKFSILNAKGEETKAMESQRAYRFVQGKDWGVKKFIRRDFLLDEANGLLPDDKLTLFCEVSVVQDSVNISGQNTMNMVKVPECRLADELGGLWENSRFTDCCLCVAGQEFQAHKAILAARSPVFSAMFEHEMEESKKNRVEINDVEPEVFKEMMCFIYTGKAPNLDKMADDLLAAADKYALERLKVMCEDALCSNLSVENAAEILILADLHSADQLKTQAVDFINYHASDVLETSGWKSMVVSHPHLVAEAYRSLASAQCPFLGPPRKRLKQS [F133V]

# Variants of: B2
# Conditions: with fgf3_human FGF3, P11487
row,effect of a mutation on the interaction,Variant
1,with no effect,MSRVPSPPPPAEMSSGPVAESWCYTQIKVVKFSYMWTINNFSFCREEMGEVIKSSTFSSGANDKLKWCLRVNPKGLDEESKDYLSLCLLLVSCPKSEVRAKFKFSILNAKGEETKAMESQRAYRFVQGKDWGFKKFIRRDFLLDEANGLLPDDKLTLFCEVSVVQDSVNISGQNTMNMVKVPECRLADELGGLWENSRFTDCCLCVAGQEFQAHKAILAARSPVFSAMFEHEMEESKKNRVEINDVEPEVFKEMMCFIYTGKAPNLDKMADDLLAAADKYALERLKVMCEDALCSNLSVENAAEILILADLHSADQLKTQAVDFINYHASDVLETSGWKSMVVSHPHLVAEAYRSLASAQCPFLGPPRKRLKQS [Y87C]

# Variants of: B2
# Conditions: with fgf3_human FGF3, P11487
# Remark: another data set of the same source
row,effect of a mutation on the interaction,Variant
1,with no effect,MSRVPSPPPPAEMSSGPVAESWCYTQIKVVKFSYMWTINNFSFCREEMGEVIKSSTFSSGANDKLKWCLRVNPKGLDEESKDYLSLYLLLVSCPKSEVRAKFKFSILNAKGEETKAMESQRAYRFVQGKDWGVKKFIRRDFLLDEANGLLPDDKLTLFCEVSVVQDSVNISGQNTMNMVKVPECRLADELGGLWENSRFTDCCLCVAGQEFQAHKAILAARSPVFSAMFEHEMEESKKNRVEINDVEPEVFKEMMCFIYTGKAPNLDKMADDLLAAADKYALERLKVMCEDALCSNLSVENAAEILILADLHSADQLKTQAVDFINYHASDVLETSGWKSMVVSHPHLVAEAYRSLASAQCPFLGPPRKRLKQS [F133V]

# Variants of: B2
# Conditions: with fgf3_human FGF3, P11487
# Remark: another data set of the same source
row,effect of a mutation on the interaction,Variant
1,with no effect,MSRVPSPPPPAEMSSGPVAESWCYTQIKVVKFSYMWTINNFSFCREEMGEVIKSSTFSSGANDKLKWCLRVNPKGLDEESKDYLSLYLLLVSCPKSEVRAKFKFSILNAKGEETKAMESQRAYRFVQGKDWGLKKFIRRDFLLDEANGLLPDDKLTLFCEVSVVQDSVNISGQNTMNMVKVPECRLADELGGLWENSRFTDCCLCVAGQEFQAHKAILAARSPVFSAMFEHEMEESKKNRVEINDVEPEVFKEMMCFIYTGKAPNLDKMADDLLAAADKYALERLKVMCEDALCSNLSVENAAEILILADLHSADQLKTQAVDFINYHASDVLETSGWKSMVVSHPHLVAEAYRSLASAQCPFLGPPRKRLKQS [F133L]

# Variants of: B2
# Conditions: with fgf3_human FGF3, P11487
# Remark: another data set of the same source
row,effect of a mutation on the interaction,Variant
1,with no effect,MSRVPSPPPPAEMSSGPVAESWCYTQIKVVKFSYMWTINNFSFCREEMGEVIKSSTFSSGANDKLKWCLRVNPKGLDEESKDYLSLYLLLVSCPKSEVRAKCKFSILNAKGEETKAMESQRAYRFVQGKDWGFKKFIRRDFLLDEANGLLPDDKLTLFCEVSVVQDSVNISGQNTMNMVKVPECRLADELGGLWENSRFTDCCLCVAGQEFQAHKAILAARSPVFSAMFEHEMEESKKNRVEINDVEPEVFKEMMCFIYTGKAPNLDKMADDLLAAADKYALERLKVMCEDALCSNLSVENAAEILILADLHSADQLKTQAVDFINYHASDVLETSGWKSMVVSHPHLVAEAYRSLASAQCPFLGPPRKRLKQS [F102C]

# Variants of: B3
# Conditions: with fgf6_human FGF6, P10767
row,effect of a mutation on the interaction,Variant
1,with no effect,MSRVPSPPPPAEMSSGPVAESWCYTQIKVVKFSYMWTINNFSFCREEMGEVIKSSTFSSGANDKLKWCLRVNPKGLDEESKDYLSLCLLLVSCPKSEVRAKFKFSILNAKGEETKAMESQRAYRFVQGKDWGFKKFIRRDFLLDEANGLLPDDKLTLFCEVSVVQDSVNISGQNTMNMVKVPECRLADELGGLWENSRFTDCCLCVAGQEFQAHKAILAARSPVFSAMFEHEMEESKKNRVEINDVEPEVFKEMMCFIYTGKAPNLDKMADDLLAAADKYALERLKVMCEDALCSNLSVENAAEILILADLHSADQLKTQAVDFINYHASDVLETSGWKSMVVSHPHLVAEAYRSLASAQCPFLGPPRKRLKQS [Y87C]
